Measured values as given in patent publication US20220235136A1 (YALE UNIVERSITY, published 2022).

B1: recombinant human CD93 protein (R&D Systems) (receptor)
chain: ADTEAVVCVGTACYTAHSGKLSAAEAQNHCNQNGGNLATVKSKEEAQHVQRVLAQLLRREAALTARMSKFWIGLQREKGKCLDPSLPLKGFSWVGGGEDTPYSNWHKELRNSCISKRCVSLLLDLSQPLLPSRLPKWSEGPCGSPGSPGSNIEGFVCKFSFKGMCRPLALGGPGQVTYTTPFQTTSSSLEAVPFASAANVACGEGDKDETQSHYFLCKEKAPDVFDWGSSGPLCVSPKYGCNFNNGGCHQDCFEGGDGSFLCGCRPGFRLLDDLVTCASRNPCSSSPCRGGATCVLGPHGKNYTCRCPQGYQLDSSQLDCVDVDECQDSPCAQECVNTPGGFRCECWVGYEPGGPGEGACQDVDECALGRSPCAQGCTNTDGSFHCSCEEGYVLAGEDGTQCQDVDECVGPGGPLCDSLCFNTQGSFHCGCLPGWVLAPNGVSCTMGPVSLGPPSGPPDEEDKGEKEGSTVPRAATASPTRGPEGTPKATPTTSRPSLSSDAPITSAPLKMLAPSGSPGVWREPSIHHATAASGPQEPAGGDSSVATQNNDGTDGQK
notes: Bought soluble protein
B3: IGFBP7 protein (R&D Systems), labelled with a His-Tag Labeling Kit for MST (ligand)
chain: SSSDTCGPCEPASCPPLPPLGCLLGETRDACGCCPMCARGEGEPCGGGGAGRGYCAPGMECVKSRKRRKGKAGAAAGGPGVSGVCVCKSRYPVCGSDGTTYPSGCQLRAASQRAESRGEKAITQVSKGTCEQGPSIVTPPKDIWNVTGAQVYLSCEVIGIPTPVLIWNKVKRGHYGVQRTELLPGDRDNLAIQTRGGPEKHEVTGWVLVSPLSKEDAGEYECHASNSQGQASASAKITVVDALHEIPVKKGEGAEL
modifications: RED-tris-NTA fluorescent dye bound to the His tag
notes: Bought; also called human IGFBP7; not shown: His tag implied by the His-Tag Labeling Kit

Legend:
[1] = target: B3; test: microscale thermophoresis (MST), CD93 titrated against 10 nM labelled IGFBP7
[2] = target: T1, mouse CD93 on transfected HEK293T cells (mouse, UniProt O89103 23-644); test: flow cytometry, mouse IGFBP7-Ig on mouse CD93-transduced or control HEK293T cells
T1 construct: whole, on cells; also called mCD93
T1 sequence (looked up): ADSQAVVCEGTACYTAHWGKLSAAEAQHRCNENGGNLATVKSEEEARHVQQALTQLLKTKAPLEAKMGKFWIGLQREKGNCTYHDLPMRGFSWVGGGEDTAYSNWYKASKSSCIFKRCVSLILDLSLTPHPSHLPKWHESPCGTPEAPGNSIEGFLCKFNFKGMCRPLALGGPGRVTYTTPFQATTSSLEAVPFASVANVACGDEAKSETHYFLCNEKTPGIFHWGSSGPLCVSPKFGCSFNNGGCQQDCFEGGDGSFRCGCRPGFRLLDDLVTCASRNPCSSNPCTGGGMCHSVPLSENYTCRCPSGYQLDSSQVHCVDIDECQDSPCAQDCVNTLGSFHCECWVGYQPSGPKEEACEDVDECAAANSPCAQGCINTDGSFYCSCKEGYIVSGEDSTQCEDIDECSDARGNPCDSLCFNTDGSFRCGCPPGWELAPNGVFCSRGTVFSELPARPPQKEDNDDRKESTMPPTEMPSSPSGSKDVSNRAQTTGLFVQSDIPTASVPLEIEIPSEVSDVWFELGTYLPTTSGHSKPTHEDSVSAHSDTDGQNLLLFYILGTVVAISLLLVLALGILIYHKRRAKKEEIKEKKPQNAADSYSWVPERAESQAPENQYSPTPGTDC

[3] = target: B1; test: microscale thermophoresis: 10 nM labelled IGFBP7, CD93 titrated from 5.9 uM to 180 pM (FIG. 4E)

Question: Which “EC50 (read off the curve)” value [1] does the source give for B1 here?
Answer: Its value is ~50 nM.

B2: Mouse IGFBP7 (Fc-tag), Sino Biological (Fc fusion, UniProt Q61581 26-281, looked up)
chain: SSSDACGPCVPASCPALPRLGCPLGETRDACGCCPVCARGEGEPCGGGAAGRGHCAPGMECVKSRKRRKGKAGAAAGGPATLAVCVCKSRYPVCGSNGITYPSGCQLRAASLRAESRGEKAITQVSKGTCEQGPSIVTPPKDIWNVTGAKVFLSCEVIGIPTPVLIWNKVKRDHSGVQRTELLPGDRENLAIQTRGGPEKHEVTGWVLVSPLSKEDAGEYECHASNSQGQASAAAKITVVDALHEIPLKKGEGAQL
notes: also called mouse IGFBP7-Ig; not shown: Fc tag
Question: Does B2 bind [2]?
Answer: Result: binds

Question: How did the Kd [3] turn out when B3 was run?
Answer: The Kd was 53.1 nM.
